# Experimental data reported in IntAct's records for PubMed 31515488.
# Tests used:
# tri41_human TRIM41 [1] = target: tri41_human TRIM41 (UniProt Q8WV44)
# cep70_human CEP70 [2] = target: cep70_human CEP70 (UniProt Q8NHQ1)
# nasp_human NASP = nasp_human NASP (UniProt P49321)
# mdfi_human MDFI = mdfi_human MDFI (UniProt Q99750)
# tom1_human TOM1 = tom1_human TOM1 (UniProt O60784)
# vtnc_human VTN = vtnc_human VTN (UniProt P04004)
# fosl2_human FOSL2 = target: T1, fosl2_human FOSL2 (UniProt P15408)
# T1 sequence: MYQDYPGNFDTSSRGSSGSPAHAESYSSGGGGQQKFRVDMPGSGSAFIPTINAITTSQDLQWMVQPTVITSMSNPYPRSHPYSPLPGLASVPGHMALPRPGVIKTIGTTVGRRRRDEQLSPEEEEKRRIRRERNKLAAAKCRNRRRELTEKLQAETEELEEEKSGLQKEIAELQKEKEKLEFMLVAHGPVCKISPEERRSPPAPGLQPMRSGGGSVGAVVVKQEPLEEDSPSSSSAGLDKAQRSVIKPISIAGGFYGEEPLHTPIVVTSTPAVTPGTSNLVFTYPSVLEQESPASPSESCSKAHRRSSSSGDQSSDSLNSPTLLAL
# gt253_human CERCAM = gt253_human CERCAM (UniProt Q5T4B2)
# mycd_human MYOCD = target: T2, mycd_human MYOCD (UniProt Q8IZQ8)
# T2 sequence: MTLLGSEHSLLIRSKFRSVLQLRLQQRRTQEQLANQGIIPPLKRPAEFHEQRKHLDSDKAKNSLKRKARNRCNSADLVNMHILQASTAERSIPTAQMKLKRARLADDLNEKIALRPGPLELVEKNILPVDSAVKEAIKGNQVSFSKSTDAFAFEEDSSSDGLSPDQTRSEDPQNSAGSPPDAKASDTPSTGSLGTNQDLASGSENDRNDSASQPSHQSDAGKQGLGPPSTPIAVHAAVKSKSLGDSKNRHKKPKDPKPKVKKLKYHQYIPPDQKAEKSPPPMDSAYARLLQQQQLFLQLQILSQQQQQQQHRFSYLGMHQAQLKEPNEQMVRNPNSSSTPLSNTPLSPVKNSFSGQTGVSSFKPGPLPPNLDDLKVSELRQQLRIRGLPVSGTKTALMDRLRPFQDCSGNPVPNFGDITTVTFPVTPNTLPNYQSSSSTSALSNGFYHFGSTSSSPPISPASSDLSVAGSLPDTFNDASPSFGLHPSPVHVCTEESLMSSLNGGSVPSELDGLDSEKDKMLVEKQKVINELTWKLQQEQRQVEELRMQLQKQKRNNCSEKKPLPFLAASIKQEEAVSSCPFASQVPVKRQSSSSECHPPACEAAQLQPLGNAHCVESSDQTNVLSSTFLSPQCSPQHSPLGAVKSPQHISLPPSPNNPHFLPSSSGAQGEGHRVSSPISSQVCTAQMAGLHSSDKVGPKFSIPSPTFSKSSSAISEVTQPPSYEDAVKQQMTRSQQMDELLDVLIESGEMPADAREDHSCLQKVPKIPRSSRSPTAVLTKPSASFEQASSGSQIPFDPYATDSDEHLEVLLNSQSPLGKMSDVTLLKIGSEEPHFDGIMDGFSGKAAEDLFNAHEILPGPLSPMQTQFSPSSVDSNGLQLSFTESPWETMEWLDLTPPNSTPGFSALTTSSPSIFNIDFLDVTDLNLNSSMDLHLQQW
# mtus2_human MTUS2 = mtus2_human MTUS2 (UniProt Q5JR59)
# zc4h2_human ZC4H2 = zc4h2_human ZC4H2 (UniProt Q9NQZ6)
# cc136_human CCDC136 = cc136_human CCDC136 (UniProt Q96JN2)
# tri41_human TRIM41 [3] = target: tri41_human TRIM41 (UniProt Q8WV44); remark: listed apart in the source
# cep70_human CEP70 [4] = target: cep70_human CEP70 (UniProt Q8NHQ1); remark: listed apart in the source
# ubql1_human UBQLN1 = ubql1_human UBQLN1 (UniProt Q9UMX0)
# rtraf_human RTRAF = rtraf_human RTRAF (UniProt Q9Y224)
# efs_human EFS = efs_human EFS (UniProt O43281)
# cep70_human CEP70 [5] = target: cep70_human CEP70 (UniProt Q8NHQ1); remark: listed apart in the source
# kr101_human KRTAP10-1 [6] = target: kr101_human KRTAP10-1 (UniProt P60331)
# kr101_human KRTAP10-1 [7] = target: kr101_human KRTAP10-1 (UniProt P60331); remark: listed apart in the source
# spopl_human SPOPL = spopl_human SPOPL (UniProt Q6IQ16)
# nup50_human NUP50 = nup50_human NUP50 (UniProt Q9UKX7)
# an32b_human ANP32B = an32b_human ANP32B (UniProt Q92688)
# rgs3_human RGS3 = rgs3_human RGS3 (UniProt P49796)
# stox1_human STOX1 = stox1_human STOX1 (UniProt Q6ZVD7)
# nqo2_human NQO2 = target: T3, nqo2_human NQO2 (UniProt P16083)
# T3 sequence: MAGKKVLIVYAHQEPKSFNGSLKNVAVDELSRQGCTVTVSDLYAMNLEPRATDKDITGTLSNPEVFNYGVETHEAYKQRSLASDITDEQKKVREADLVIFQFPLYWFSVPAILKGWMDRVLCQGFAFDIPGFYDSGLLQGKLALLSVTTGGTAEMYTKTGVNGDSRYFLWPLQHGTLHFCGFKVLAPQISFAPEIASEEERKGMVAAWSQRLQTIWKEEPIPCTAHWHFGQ
# fhl3_human FHL3 = fhl3_human FHL3 (UniProt Q13643)
# lhx8_human LHX8 = lhx8_human LHX8 (UniProt Q68G74)
# traf2_human TRAF2 = traf2_human TRAF2 (UniProt Q12933)
# anr44_human ANKRD44 = anr44_human ANKRD44 (UniProt Q8N8A2)
# leg9b_human LGALS9B = leg9b_human LGALS9B (UniProt Q3B8N2)
# pdli7_human PDLIM7 = pdli7_human PDLIM7 (UniProt Q9NR12)
# snrpa_human SNRPA = snrpa_human SNRPA (UniProt P09012)
# ptbp2_human PTBP2 = ptbp2_human PTBP2 (UniProt Q9UKA9)
substance,measurement,setting,value
"Zinc finger protein 329 (Homo sapiens), Q86UD4 N182D",effect of a mutation on the interaction,tri41_human TRIM41 [1],with no effect
same,effect of a mutation on the interaction,cep70_human CEP70 [2],with no effect
Histone H3.1 (Homo sapiens) (from UniProt P68431) A128G,effect of a mutation on the interaction,nasp_human NASP,with no effect
"Nuclear transition protein 2 (Homo sapiens), Q05952 R131W",effect of a mutation on the interaction,mdfi_human MDFI,with no effect
Toll-interacting protein (Homo sapiens) (from UniProt Q9H0E2) I264V,effect of a mutation on the interaction,tom1_human TOM1,with no effect
Golgi-associated PDZ and coiled-coil motif-containing protein (Homo sapiens) (from UniProt Q9HD26) L123V,effect of a mutation on the interaction,vtnc_human VTN,with no effect
same,effect of a mutation on the interaction,fosl2_human FOSL2,with no effect
same,effect of a mutation on the interaction,gt253_human CERCAM,with no effect
same,effect of a mutation on the interaction,mycd_human MYOCD,with no effect
"Zinc finger protein 490 (Homo sapiens), Q9ULM2 E419K",effect of a mutation on the interaction,mtus2_human MTUS2,with no effect
same,effect of a mutation on the interaction,zc4h2_human ZC4H2,with no effect
same,effect of a mutation on the interaction,cc136_human CCDC136,with no effect
same,effect of a mutation on the interaction,tri41_human TRIM41 [3],with no effect
same,effect of a mutation on the interaction,cep70_human CEP70 [4],with no effect
Frizzled-7 (Homo sapiens) (from UniProt O75084) P285S,effect of a mutation on the interaction,ubql1_human UBQLN1,with no effect
"Protein FAM98A (Homo sapiens), Q8NCA5 S283G",effect of a mutation on the interaction,rtraf_human RTRAF,with no effect
"Tyrosine-protein kinase Fyn (Homo sapiens), P06241-3 V410M",effect of a mutation on the interaction,efs_human EFS,with no effect
"Zinc finger protein 227 (Homo sapiens), Q86WZ6 P249S",effect of a mutation on the interaction,cep70_human CEP70 [5],with no effect
"Zinc finger protein 559 (Homo sapiens), Q9BR84 L6W",effect of a mutation on the interaction,kr101_human KRTAP10-1 [6],with no effect
"Zinc finger protein 264 (Homo sapiens), O43296 G166D",effect of a mutation on the interaction,kr101_human KRTAP10-1 [7],with no effect
"Importin subunit alpha-6 (Homo sapiens), O15131 F48L",effect of a mutation on the interaction,spopl_human SPOPL,with no effect
same,effect of a mutation on the interaction,nup50_human NUP50,with no effect
same,effect of a mutation on the interaction,an32b_human ANP32B,with no effect
Golgi reassembly-stacking protein 2 (Homo sapiens) (from UniProt Q9H8Y8) S432F,effect of a mutation on the interaction,rgs3_human RGS3,with no effect
same,effect of a mutation on the interaction,stox1_human STOX1,with no effect
same,effect of a mutation on the interaction,nqo2_human NQO2,with no effect
"Isoform 1 of Krueppel-like factor 3 (Homo sapiens), P57682-1 C322F",effect of a mutation on the interaction,fhl3_human FHL3,disrupting interaction strength
same,effect of a mutation on the interaction,lhx8_human LHX8,disrupting interaction strength
same,effect of a mutation on the interaction,traf2_human TRAF2,disrupting interaction strength
"NEDD4-like E3 ubiquitin-protein ligase WWP2 (Homo sapiens), O00308 R315C",effect of a mutation on the interaction,anr44_human ANKRD44,with no effect
same,effect of a mutation on the interaction,leg9b_human LGALS9B,with no effect
same,effect of a mutation on the interaction,pdli7_human PDLIM7,with no effect
"Polypyrimidine tract-binding protein 1 (Homo sapiens), P26599 A173T",effect of a mutation on the interaction,snrpa_human SNRPA,with no effect
same,effect of a mutation on the interaction,ptbp2_human PTBP2,with no effect
